For this data set, the system named is COc1cc2c(c(OC)c1OC)-c1ccc(OC)c(=O)cc1[C@@H](NC(C)=O)CC2. As to the kind of experiment: TP_TRANSPORTER: ATP hydrolysis in reconstituted proteoliposomes. It is filed as functional, subcellular.

Broadly, the Km is the concentration of substrate that gives half-maximal velocity.

Turning to “ATP-dependent translocase ABCB1 (Homo sapiens)”, the Km stood at 45 µM.

These data come from ChEMBL document CHEMBL2074521, “Partial purification and reconstitution of the human multidrug-resistance pump: characterization of the drug-stimulatable ATP hydrolysis” (Proc Natl Acad Sci U S A, 1992).
